± gives the uncertainty stated by the source.
B1: CD2-associated protein, residues 1 to 59; numbered along this chain, Q9Y5K6 (parent)
chain: MVDYIVEYDYDAVHDDELTIRVGEIIRNVKKLQEEGWLEGELNGRRGMFPDNFVKEIKR

Variants of: B1
Assay: abundance fitness (aPCA) (normalised: wild type 0, dead -1); higher = more abundant; growth selection in yeast, the domain comes from the species named
Details: Homo sapiens

Variant	abundance fitness
N28L	-0.734 ± 0.11
N28S	-0.176 ± 0.076
N28W	-0.892 ± 0.28
N28P	-0.909 ± 0.23
N28T	-0.615 ± 0.14
N28K	-0.262 ± 0.093
N28G	-0.025 ± 0.083
N28Q	-0.15 ± 0.12
N28H	-0.206 ± 0.14
V13L	-0.188 ± 0.095
V13T	-0.275 ± 0.11
V13M	-0.058 ± 0.18
V13I	-0.431 ± 0.33
Y4K	-0.486 ± 0.15
Y4P	-0.863 ± 0.35
E41M	-0.312 ± 0.2
E41V	-0.535 ± 0.22
G40K	-0.541 ± 0.18
G40D	-0.825 ± 0.36
G40M	-0.661 ± 0.31
I25Y	-0.294 ± 0.18
I25T	-0.064 ± 0.12
I25V	-0.088 ± 0.13
I25S	-0.541 ± 0.14

Variant	abundance fitness
K55W	-0.771 ± 0.32
K55Y	-0.294 ± 0.23
K55M	-0.218 ± 0.14
K55S	-0.07 ± 0.079
K55P	-0.507 ± 0.37
V22F	-0.17 ± 0.21
V22S	-0.09 ± 0.086
V22H	-0.201 ± 0.18
V22G	-0.02 ± 0.19
V22M	-0.52 ± 0.2
V22A	0.16 ± 0.15
V22I	-0.273 ± 0.15
V22L	-0.438 ± 0.1
V22T	-0.067 ± 0.14
V22C	-0.304 ± 0.22
E17D	-0.13 ± 0.4
E17N	-0.421 ± 0.23
E17C	-0.407 ± 0.27
E17G	-0.34 ± 0.095
D11V	-0.002 ± 0.16
D11Y	-0.242 ± 0.14
F53A	0.052 ± 0.073
F53R	0.001 ± 0.084
F53S	0.035 ± 0.071

Variant	abundance fitness
F53M	-0.047 ± 0.28
F53P	-0.249 ± 0.11
F53L	0.056 ± 0.086
F53H	0.111 ± 0.11
F53Y	-0.131 ± 0.13
F53C	0.122 ± 0.083
F53Q	-0.317 ± 0.12
Q33L	-0.351 ± 0.068
Q33W	-0.474 ± 0.28
Q33E	-0.014 ± 0.18
Q33C	-0.192 ± 0.099
Q33R	-0.084 ± 0.083
Q33V	-0.317 ± 0.078
Q33A	-0.071 ± 0.089
Q33K	-0.07 ± 0.12
Q33G	0.015 ± 0.13
Q33T	0.006 ± 0.083
Q33N	0.102 ± 0.073
R27N	-0.173 ± 0.075
R27T	-0.013 ± 0.079
R27M	-0.133 ± 0.18
R27G	-0.148 ± 0.092
R27L	-0.208 ± 0.086
R27D	-0.838 ± 0.18

Variant	abundance fitness
R27H	0.059 ± 0.069
R27Y	-0.291 ± 0.075
P50I	-0.843 ± 0.29
P50E	-0.968 ± 0.4
P50T	-0.746 ± 0.24
P50A	-0.502 ± 0.16
P50V	-0.996 ± 0.28
P50K	-0.184 ± 0.28
P50R	0.115 ± 0.15
P50H	-0.149 ± 0.17
L18F	-0.846 ± 0.44
L18A	-0.683 ± 0.34
L18S	-0.651 ± 0.23
V29G	-0.261 ± 0.11
V29I	-0.441 ± 0.23
V29C	-0.167 ± 0.46
E34H	0.173 ± 0.18
E34G	-0.034 ± 0.072
E34P	-0.152 ± 0.19
E34R	0.018 ± 0.077
E34N	0.009 ± 0.16
E34C	0.094 ± 0.21
E34A	-0.048 ± 0.13
D51E	0.032 ± 0.2

Variant	abundance fitness
D51M	-0.136 ± 0.41
D51Y	-0.125 ± 0.088
D51H	-0.032 ± 0.099
D51G	-0.047 ± 0.076
D51V	-0.066 ± 0.091
I57R	-0.007 ± 0.25
E24C	-0.625 ± 0.13
E24G	-0.341 ± 0.073
E24Q	-0.263 ± 0.18
E24F	-0.338 ± 0.26
E24D	0.321 ± 0.27
E24M	-0.387 ± 0.12
N43F	-0.409 ± 0.15
N43P	-0.653 ± 0.2
N43E	-0.192 ± 0.45
N43T	-0.62 ± 0.12
N43W	-0.562 ± 0.26
N43H	0.145 ± 0.15
N43L	-0.323 ± 0.06
N52A	-0.091 ± 0.22
N52V	0.061 ± 0.17
N52M	-0.155 ± 0.11
N52F	0.073 ± 0.13
N52G	-0.128 ± 0.17

Variant	abundance fitness
N52L	-0.03 ± 0.078
V2S	-0.029 ± 0.15
V2E	-0.031 ± 0.096
V2N	0.064 ± 0.27
V2I	0.054 ± 0.16
T19S	-0.033 ± 0.066
T19F	-0.841 ± 0.34
T19I	-0.753 ± 0.16
T19Y	-0.846 ± 0.22
T19Q	-0.498 ± 0.14
T19L	-0.682 ± 0.11
T19M	-0.713 ± 0.18
T19C	-0.384 ± 0.11
T19D	-0.36 ± 0.15
T19H	-0.399 ± 0.23
T19P	-0.685 ± 0.19
T19W	-0.929 ± 0.23
R46Q	-0.301 ± 0.21
R46E	-0.445 ± 0.26
R46K	-0.181 ± 0.17
W37S	-0.277 ± 0.12
W37Y	-0.02 ± 0.28
W37L	-0.273 ± 0.075
W37K	-0.469 ± 0.35

Variant	abundance fitness
V6T	-0.367 ± 0.082
V6N	-1.04 ± 0.31
V6F	-0.483 ± 0.13
V6Y	-0.52 ± 0.14
V6R	-0.875 ± 0.12
G44S	-0.592 ± 0.22
G44L	-0.547 ± 0.36
G44H	-0.549 ± 0.3
E7R	-0.087 ± 0.074
E7I	0.025 ± 0.15
E7A	-0.135 ± 0.079
H14Q	-0.086 ± 0.15
H14K	0.088 ± 0.15
H14L	-0.217 ± 0.093
H14D	-0.113 ± 0.18
H14G	-0.031 ± 0.087
H14R	0.021 ± 0.091
K31Y	-0.159 ± 0.44
K31L	-0.214 ± 0.09
K31H	0.036 ± 0.17
K31I	0.191 ± 0.19
K31N	-0.311 ± 0.5
K31F	-0.728 ± 0.33
K31S	-0.13 ± 0.099

Variant	abundance fitness
K31V	-0.092 ± 0.093
K31P	0.089 ± 0.12
I20D	-0.933 ± 0.34
I20A	-0.546 ± 0.14
I20C	-0.292 ± 0.14
I20L	-0.014 ± 0.057
I20N	-0.792 ± 0.24
I20M	-0.019 ± 0.11
R59S	0.052 ± 0.1
R59C	0.035 ± 0.29
R59Y	-0.156 ± 0.26
R59L	0.063 ± 0.11
R59M	-0.058 ± 0.1
K30N	-0.113 ± 0.16
K30G	-0.127 ± 0.1
K30W	-0.192 ± 0.091
K30E	0.007 ± 0.18
K30A	-0.181 ± 0.13
K30D	-0.22 ± 0.18
K30M	0.018 ± 0.11
K30S	-0.135 ± 0.095
M1F	-0.137 ± 0.38
M1E	-0.276 ± 0.23
M1I	0.078 ± 0.17

Variant	abundance fitness
M1R	-0.083 ± 0.12
M1N	-0.425 ± 0.34
M1L	0.015 ± 0.097
M1W	-0.163 ± 0.1
M1K	0.142 ± 0.12
G36M	-0.433 ± 0.16
G36E	-0.659 ± 0.38
G36H	-0.231 ± 0.1
G36R	-0.195 ± 0.1
G36Q	-0.467 ± 0.3
G36V	-0.745 ± 0.13
G36L	-0.978 ± 0.18
R45H	0.232 ± 0.2
R45G	-0.7 ± 0.31
R45Q	-0.009 ± 0.13
R45Y	-0.359 ± 0.24
R45V	-0.275 ± 0.13
I5E	-0.267 ± 0.18
I5N	-0.681 ± 0.36
I5A	-0.544 ± 0.17
I5L	-0.105 ± 0.1
I5Q	0.037 ± 0.18
I5G	-0.704 ± 0.16
I5P	-0.979 ± 0.41

Variant	abundance fitness
I5C	-0.343 ± 0.21
E39Y	-0.164 ± 0.15
E39H	-0.202 ± 0.14
E39C	0 ± 0.21
E39V	-0.201 ± 0.11
E39K	-0.302 ± 0.32
E39D	-0.541 ± 0.16
D3Q	-0.188 ± 0.068
D3R	-0.255 ± 0.046
D3S	-0.048 ± 0.055
D3A	-0.232 ± 0.066
D3I	-0.453 ± 0.094
E56C	-0.044 ± 0.4
E56P	0.06 ± 0.19
E56M	-0.152 ± 0.21
E56L	-0.18 ± 0.1
E56V	-0.05 ± 0.27
E56S	-0.256 ± 0.11
E56I	-0.286 ± 0.44
E56A	-0.002 ± 0.12
R21P	-0.793 ± 0.43
R21K	-0.28 ± 0.36
R21V	-0.755 ± 0.12
R21Q	-0.414 ± 0.24

Variant	abundance fitness
R21L	-0.358 ± 0.088
L32S	-0.011 ± 0.078
L32T	-0.302 ± 0.21
L32D	-0.223 ± 0.14
Y8A	0.002 ± 0.082
Y8R	0.097 ± 0.098
Y8H	0.148 ± 0.23
D15Q	-0.008 ± 0.11
D15R	-0.146 ± 0.076
D15M	-0.305 ± 0.096
D15W	-0.453 ± 0.13
D15G	-0.051 ± 0.12
D15V	-0.038 ± 0.069
D15L	-0.142 ± 0.054
G23W	-0.955 ± 0.33
G23T	-0.755 ± 0.24
G23V	-0.844 ± 0.21
G23Q	-0.557 ± 0.26
G23Y	-0.522 ± 0.24
G23M	-0.918 ± 0.34
G23C	-0.831 ± 0.22
M48W	-0.126 ± 0.11
M48H	-0.257 ± 0.11
M48C	-0.012 ± 0.18

Variant	abundance fitness
M48L	-0.065 ± 0.079
M48G	-0.33 ± 0.11
M48Q	-0.015 ± 0.082
M48A	0.045 ± 0.086
M48K	0.093 ± 0.097
M48N	0.047 ± 0.17
A12P	-0.591 ± 0.1
A12I	-0.782 ± 0.21
A12W	-0.942 ± 0.22
A12Y	-1.05 ± 0.4
A12S	-0.157 ± 0.088
A12E	-0.435 ± 0.18
A12L	-1.12 ± 0.16
F49S	-0.695 ± 0.15
F49M	-0.38 ± 0.12
E35T	-0.177 ± 0.067
E35I	-0.062 ± 0.095
E35C	-0.156 ± 0.093
E35V	-0.049 ± 0.066
E35Y	-0.215 ± 0.15
E35P	0.051 ± 0.099
E35R	-0.016 ± 0.062
E35N	0.054 ± 0.11
Y10C	-0.569 ± 0.22

Variant	abundance fitness
Y10V	-1.06 ± 0.39
Y10S	-0.999 ± 0.17
Y10N	-0.599 ± 0.33
Y10I	-0.812 ± 0.37
Y10L	-0.782 ± 0.1
Y10W	-0.037 ± 0.062
Y10G	-0.671 ± 0.21
Y10H	-0.257 ± 0.28
Y10M	-0.667 ± 0.11
V54H	-0.484 ± 0.43
V54A	-0.258 ± 0.21
V54T	-0.209 ± 0.3
L38C	-0.193 ± 0.11
L38P	-1.07 ± 0.33
L38S	0.003 ± 0.074
L38D	-0.721 ± 0.38
L38A	-0.25 ± 0.1
L38H	-0.662 ± 0.17
L38T	-0.548 ± 0.13
L38Y	-0.27 ± 0.086
L38F	-0.105 ± 0.091
L42T	-0.515 ± 0.18
L42S	-0.267 ± 0.1
L42I	0.043 ± 0.22

Variant	abundance fitness
L42M	-0.678 ± 0.21
L42H	-0.297 ± 0.15
L42W	-0.399 ± 0.16
L42F	-0.212 ± 0.12
L42A	-0.327 ± 0.15
K58A	-0.021 ± 0.27
D16M	-0.073 ± 0.13
D16T	0.005 ± 0.09
D16Q	-0.12 ± 0.15
D16W	-0.08 ± 0.094
D16Y	0.03 ± 0.14
D16K	-0.095 ± 0.13
D16A	-0.045 ± 0.059
I26L	-0.107 ± 0.085
I26C	-0.517 ± 0.13
I26W	-0.743 ± 0.23
D9E	-0.346 ± 0.12
D9K	-0.369 ± 0.32
D9V	-0.77 ± 0.37
D9L	-0.92 ± 0.24
D9T	-0.725 ± 0.21
D9S	-0.172 ± 0.13
